Assay results taken from patent US20210145976A1 (ARO BIOTHERAPEUTICS, published 2021).

Experiments:
[1] = target: T1, recombinant biotinylated CD71 extracellular domain (Sino Biologics) with an N-terminal 6His tag (human, UniProt P02786 89-760, biotinylated (sites not given)); experiment: screening ELISA, ratio
T1 construct: extracellular domain; also called hCD71; huCD71

[2] = target: T1, recombinant biotinylated CD71 …; experiment: screening ELISA

T1 sequence (P02786 other isoform, or with tags, fused parts or gaps): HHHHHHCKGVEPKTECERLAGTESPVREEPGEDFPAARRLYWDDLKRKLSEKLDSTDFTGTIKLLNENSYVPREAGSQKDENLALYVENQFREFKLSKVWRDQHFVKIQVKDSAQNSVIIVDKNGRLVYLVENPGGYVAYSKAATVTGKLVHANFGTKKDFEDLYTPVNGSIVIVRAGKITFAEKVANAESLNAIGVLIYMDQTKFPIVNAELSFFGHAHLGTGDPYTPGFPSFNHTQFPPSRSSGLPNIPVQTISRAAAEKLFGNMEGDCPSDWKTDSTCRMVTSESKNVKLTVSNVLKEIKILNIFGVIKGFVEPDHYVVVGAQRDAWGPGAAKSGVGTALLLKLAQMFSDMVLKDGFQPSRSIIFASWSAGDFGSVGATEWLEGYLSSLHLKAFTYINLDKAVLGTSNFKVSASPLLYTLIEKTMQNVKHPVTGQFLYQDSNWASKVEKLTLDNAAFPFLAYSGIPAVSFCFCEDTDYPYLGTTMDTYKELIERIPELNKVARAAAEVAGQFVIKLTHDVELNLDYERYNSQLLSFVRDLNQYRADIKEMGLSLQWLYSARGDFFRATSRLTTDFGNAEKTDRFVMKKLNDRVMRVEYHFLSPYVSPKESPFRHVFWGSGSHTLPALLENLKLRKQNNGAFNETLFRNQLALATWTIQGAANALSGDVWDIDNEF

hCD71:HSA [1]	hCD71 [2]	Binder
629	1.7e+06	SEQ ID NO 232 (designed binder, FN3 domain) MLPAPKNLVVSRVTEDSARLSWTAPDAAFDSFTIAYDETLNLGEAIVLTVPGSERSYDLTGLKPGTEYIVGIFGVKGGTHSWPLSAIFTT
1050	2e+06	SEQ ID NO 230 (designed binder, FN3 domain) MLPAPKNLVVSRVTEDSARLSWTAPDAAFDSFQIRYPKRWISGEAIVLTVPGSERSYDLTGLKPGTEYEVVIRGVKGGEYSWPLSAIFTT
1680	3.85e+06	SEQ ID NO 227 (designed binder, FN3 domain) MLPAPKNLVVSRVTEDSARLSWTAPDAAFDSFRIRYLEWWNIGEAIVLTVPGSERSYDLTGLKPGTEYHVDIWGVKGGYSSYPLSAIFTT
90	1.3e+06	SEQ ID NO 260 (designed binder, FN3 domain) MLPAPKNLVVSRVTEDSARLSWTAPDAAFDSFNISYYEYFVHGEAIVLTVPGSERSYDLTGLKPGTEYYVIDGVKGGDPSEPLSAIFTT
330	545000	SEQ ID NO 244 (designed binder, FN3 domain) MLPAPKNLVVSRVTEDSARLSWTAPDAAFDSFHIDYSEFHLRGEAIVLTVPGSERSYDLTGLKPGTEYLGIFGVKGGEQSGPLSAIFTT
43	1.47e+06	SEQ ID NO 191 (designed binder, FN3 domain) MLPAPENLVVSRVTEDSARLSWTAPDAAFDSFEITYEENWRRGEAIVLTVPGSERSYDLTGPKPGTEYIVIIQGVKGGAESWPLSAIFTT
55	832000	SEQ ID NO 248 (designed binder, FN3 domain) MGSLPAPKNLVVSRVTEDSARLSWTAPDAAFDSFAIPYAEPSPTGEAIVLTVPGSERSYDLTGLKPGTEYPVWIQGVKGGSPSAPLSAEFTT
1140	2.8e+06	SEQ ID NO 253 (designed binder, FN3 domain) MLPAPKNLVVSRVTEDSARLSWTAPDAAFDSFTIEYWETIGGGEAIVLTVPGSERSYDLTGLKPGTEYYVGIYGVKGGWWSRPLSAIFTT
50	1.72e+06	SEQ ID NO 196 (designed binder, FN3 domain) MLPAPKNLVVSRVTEDSARLSWTAPDAAFDSFNIHYVEWWVLGEAIVLTVPGSERSYDLTGLKPGTEYPVYIYGVKGGPKSIPLSAIFTT
154	570000	SEQ ID NO 229 (designed binder, FN3 domain) MLPAPKNLVVSRVTEDSARLSWTAPDAAFDSFSIHYDEDWRRGEAIVLTVPGSERSYDLTGLKPGTEYLVEIPGVKGGKASYPLSAIFTT
71	2.39e+06	SEQ ID NO 218 (designed binder, FN3 domain) MLPAPKNLVVSRVTEDSARLSWTAPDAAFDSFTILYYEMVGEGEAIVLTVPGSERSYDLTGPKPGTEYWVDIYGVKGGGWSRPLSAIFTT
47	979000	SEQ ID NO 173 (designed binder, FN3 domain) MLPAPKNLVVSRVTEDSARLSWTAPDAAFDSFTIHYRELYVQAIVLTVPGSERSYDLTGLKPGTEYLVMIPGVKGGPTSVPLSAIFTT
166	690000	SEQ ID NO 269 (designed binder, FN3 domain) MLPAPKNLVVSRVTEDSARLSWTAPDAAFDSFHINYAEVYTKGEAILLTVPGSERSYDLTGLKPGTEYEVYIPGVKGGPFSRPLNAQFTT

Further lines, the binder ahead of its results:

Binder	hCD71:HSA [1]	hCD71 [2]
SEQ ID NO 266 (designed binder, FN3 domain) MLPAPKNLVVSRVTEDSARLSWTAPDAAFDSFMIRYQEGTRWGEAIVLTVPGSERSYDLTGLKPGTEYIVMIAGVKGGQISLPLSAIFTT	337	894000
SEQ ID NO 270 (designed binder, FN3 domain) MLPAPKNLVVSRVTEDSARLSWTAPDAAFDSFLIRYQEWQRWGEAIVLTVPGSERSYDLTGLKPGTEYTVHIAGVKGGMLSLPLSAIFTT	754	1.81e+06
SEQ ID NO 184 (designed binder, FN3 domain) MLPAPKNLVVSRITEDSARLSWTAPDAAFDSFGIGYYEHKRFGEAIQLSVPGSERSYDLTGLKPGTEYEVDIEGVKGGVLSWPLFAEFTT	235	470000
SEQ ID NO 247 (designed binder, FN3 domain) MLPAPKNLVVSRVTEDSARLSWTAPDAAFDSFYIEWTYKGEAIVLTVPGSERSYDLTGLKPGTEYFVGIPGVKGGKSSYPLSAIFTT	17	916000
SEQ ID NO 242 (designed binder, FN3 domain) MLPAPKNLVVSRVTEDSARLSWTAPDAAFDSFPIKYLEWWSWGEAIVLTVPGSERSYDLTGLKPGTEYRVPISGVKGGGMSGPLSAIFTT	178	872000
SEQ ID NO 206 (designed binder, FN3 domain) MLPAPKNLVVSRVTEDSARLSWTAPDAAFDSFDIEYDELWKNGEAIVLTVPGSERSYDLTGLKPGTEYRVFIYGVKGGYGSFPLSAIFTT	314	833000
SEQ ID NO 172 (designed binder, FN3 domain) MLPAPKNLVVSRVTEDSARLSWTAPDAAFDSFPIEYDEWWALGEAITLIVPASERSYDLTGLKPGTEYVVKIHGVKGGQRSYPLIAFFTT	1160	4.31e+06
SEQ ID NO 204 (designed binder, FN3 domain) MLPAPKNLVVSRVTEDSARLPWTAPDAAFDSFWISYYESVGYGEAIVLTVPGSERSYDLTGLKPGTEYYVDISGVKGGVYSLPLSAIFTT	113	2.77e+06
SEQ ID NO 249 (designed binder, FN3 domain) MLPAPKNLVVSRVTEDSARLSWTAPDAAFDSFSIDYFESVGFGEAIVLTVPGSERSYDLTGLKPGTEYDVQITGVKGGPHSLPLSAIFTT	148	1.05e+06
SEQ ID NO 208 (designed binder, FN3 domain) MLPAPKNLVVSRVTEDSARLSWTAPDAAFDSFGIVYREPYVGGEAIVLTVPGSERSYDLTGLKPGTEYGVPIPGVKGGYDSGPLSAIFTT	49	2.29e+06
SEQ ID NO 231 (designed binder, FN3 domain) MLPAPKNLVVSRVTEDSARLSWTAPDAAFDSFEIPYIETVALGEAIVLTVPGSERSYDLTGLKPGTEYYVEIYGVKGGSYSYPLSAISTT	86	2.27e+06
SEQ ID NO 224 (designed binder, FN3 domain) MLLAPKNLVVSRVTEDSARLSWTAPDAAFDSFRYLEQGLYGEAIVLTVPGSERSYDLTGLKPGTEYWVEIIGVKGGEYSTPLSAIFTT	122	2.02e+06
SEQ ID NO 221 (designed binder, FN3 domain) MLPAPKNLVVSRVTEDSARLSWTAPDAAFDSFHISYQEVVAEGEAIYLRVPGSERSYDLTGLKPGTEYYVLIHGVKGGYESKPLDASFTT	537	1.96e+06
SEQ ID NO 209 (designed binder, FN3 domain) MLPAPKNLVVSRVTEDSARLSWTAPDAAFDSFTIPYIEYVWWGEAIVLTVQGSERSYDLTGLKPGTEYPVTIGGVKGGSRSHPLHAHFTT	57	790000
SEQ ID NO 203 (designed binder, FN3 domain) MLPAPKNLVVSRVTEDSARLSWTAPDAALDSFRIEYYESYGHGEAIVLTVPGSERSYDLTGLKPGTEYDVGIYGVKGGYYSRPLSAIFTT	1020	3.38e+06
SEQ ID NO 225 (designed binder, FN3 domain) MLPAPKNLVVSRVTEDSARLSWTAPDAAFDSFKIEYFEYVGYGEAIVLTVPGSERSYDLTGLKPGTEYYVAIYGVKGGWYSRPLSAIFTT	210	2.96e+06
SEQ ID NO 201 (designed binder, FN3 domain) MLPAPKNLVVSRVTEDSARLSWTAPDAAFDSFNIDYWETWVIGEAIVLTVPGSERSYDLTGLKPGTEYEVIIPGVKGGTISPPLSAIFTT	106	1.2e+06
SEQ ID NO 241 (designed binder, FN3 domain) MLPAPKNLVVSRVTEDSARLSWTAPDAAFDSFNIYYYEWFVSGEAIVLTVPGSERSYDLTGLKPGTEYFVDIDGVKGGYRSRPLSAIFTT	1230	2.7e+06
SEQ ID NO 186 (designed binder, FN3 domain) MLPAPKNLVVSRVTEDSARLSWTAPDAAFDSFFIGYLESAEAIVLTVPGSERSYDLTGLKPGTEYLVTIQGVKGGIASDPLSAIFTT	1090	2.02e+06
SEQ ID NO 239 (designed binder, FN3 domain) MLPAPKNLVVSRVTEDSARLSWTAPDAAFDSFAITYYEGRWRGEAIVLTVPGSERSYDLTGLKPGTEYGVPIRGVKGGTGSLPLSAIFTT	83	419000
SEQ ID NO 234 (designed binder, FN3 domain) MLPAPKNLVVSRVTEDSARLSWTAPDAAFDSFYITYWETWDYGEAIVLTVPGSERSYDLTGLKPGTEYKVPITGVKGGGPSVPLSAIFTT	94	680000
SEQ ID NO 189 (designed binder, FN3 domain) MLPAPKNLVVSRVTEDSARLSWTAPDAAFDSFHEWVYFGEAIVLTVPGSERSYDLTGLKPGTEYFVDIWGVKGGTVSKPLSAIFTT	29	1.96e+06
SEQ ID NO 199 (designed binder, FN3 domain) MLPAPKNLVVSRVTEDSARLSWTAPDAAFDSFGIRYFEWWDLGEAIVLTVPGSERSYDPTGLKPGTEYNVTIQGVKGGFPSMPLSAIFTT	101	1.46e+06
